Here are results for one molecule from patent publication US11135223B2, “Compositions and methods for inhibiting Dkk-1” (YALE UNIVERSITY, priority 2016, dated 2021).

This test concerns CD4 T cells. Put plainly: CD4 T cell activation and differentiation in vitro with Dkk-1 or Wnt3a. It is filed as cell-based, mice. An excerpt: FIG. 5, comprising FIG. 5A through FIG. 5E, depicts results of experiments showing Dkk-1 induces TH2 cell polarization. FIG. 5A depicts lungs harvested for immunohistochemistry of CD3 (dark brown), CD41 (blue) and isotype control antibodies of lungs from Dkk-1^d/d mice and their wildtype littermate controls challenged with HDM extract allergen. Orange arrowheads in the images indicate co-localized CD3 T cells with CD41^+ platelets. FIG. 5B depicts ELISA analysis of Dkk-1 from plasma samples from Dkk-1^d/d mice (n=5) collected 24 hours after challenge with 50 μg HDM. FIG. 5C depicts ELISA analysis of splenic CD4 T cells from 6-8 week-old C57BL/6 mice were activated with anti-CD3 and anti-CD28 antibodies (Act) with or without Dkk-1 (30 ng/ml unless indicated) for 4 days. FIG. 5D depicts flow cytometry analysis of splenic CD4 T cells from 6-8 week-old C57BL/6 mice were activated with anti-CD3 and anti-CD28 antibodies (Act) with or without Dkk-1 (30 ng/ml unless indicated) for 4 days. FIG. 5E depicts ELISA analysis of naïve CD4 T cells stimulated anti-CD3 and anti-CD28 antibodies for 96 hr with or without Dkk-1.
FIG. 6, comprising FIG. 6A through FIG. 6E, depicts results of experiments showing Dkk-1 induces TH2 cytokines in various T cell differentiation conditions. FIG. 6A depicts flow cytometry and ELISA analysis of naïve CD4 T cells were stimulated under TH1 polarization conditions for 96 hours with or without Dkk-1. FIG. 6B depicts flow cytometry and ELISA analysis of naïve CD4 T cells were stimulated under TH2 polarization conditions for 96 hours with or without Dkk-1. FIG. 6C depicts flow cytometry analysis of Foxp3, IL-17A, and IL-10 expression in splenic naïve CD4 T cells isolated and differentiated into iTreg for 5 days with 100 U/ml IL-2 and 1.5 ng/ml TGF-β with or without 30 ng/ml and 3 ng/ml of Dkk-1 treated during the culture. FIG. 6D depicts Gata-3 expression levels of splenic naïve CD4 T cells from 8 week-old C57BL/6 mice treated with Dkk-1 with varying doses of Dkk-1 (50, 30, 7.5 ng/ml) or Wnt3a (20% v/v) for 96 hours in the presence of anti-CD3 and anti-CD28 antibody stimulation. FIG. 6E depicts qPCR results of Tcf7 and Lef1 mRNA harvested from splenic naïve CD4 T cells from 8 week-old C57BL/6 mice stimulated with or without Dkk-1 (30 ng/ml) for 96 hours. All results were statistically non-significant. All experiments are a representative of two to three independent experiments. Student's t-test or one way-ANOVA analysis with Bonferonni's post-hoc test were performed. Small horizontal lines and error bars indicate the mean (±s.e.m.). ***, p<0.0001, **, p<0.005, *, p<0.05.
FIG. 8, comprising FIG. 8A through FIG. 8G, depicts results of experiments showing Dkk-1 induces IL-10 in CD4 T cells via SGK-1 and p38 MAPK. FIG. 8A depicts ELISA analysis of naïve CD4 T cell differentiated into TH2 cells with or without Dkk-1 (30 ng/ml), SGK-1 inhibitor (2 μM) or p38 inhibitor (10 μM) for 96 hours. FIG. 8B depicts flow cytometry analysis of human naïve CD4 T cells (CD4^+CD25^−CD45RA^+) transduced with SGK-1 shRNA and selected with puromycin (0.5 μg/ml) for 48 hours. The selected cells were stimulated with anti-CD3 mAb (OKT3) and anti-CD28 mAb with or without Dkk-1 for 96 hr. For the last 5 hr of culture, stimulation cocktail (PMA/Ionomycin/Brefeldin A/Monensin) was added. FIG. 8C depicts intracellular staining with antibodies recognizing phospho-S6 kinase of splenic CD4^+CD25^− cells from 6 week-old C57BL/6 mice were isolated and activated with anti-CD3 and anti-CD28 mAb (2 μg/ml) with or without Dkk-1 (25 ng/ml) for indicated time points. FIG. 8D depicts intracellular staining with antibodies recognizing phospho-4E-BP1 of splenic CD4^+CD25^− cells from 6 week-old C57BL/6 mice were isolated and activated with anti-CD3 and anti-CD28 mAb (2 μg/ml) with or without Dkk-1 (25 ng/ml) for indicated time points. […]

Where only a bound is given, the exact number is not on record here.

B1: Dkk-1: Wnt antagonist Dickkopf-1 protein, expressed in CHO cells, added to cells or injected into mice (protein, UniProt O94907 32-266, looked up)
Dickkopf-related protein 1: TLNSVLNSNAIKNLPPPLGGAAGHPGSAVSAAPGILYPGGNKYQTIDNYQPYPCAEDEECGTDEYCASPTRGGDAGVQICLACRKRRKRCMRHAMCCPGNYCKNGICVSSDQNHFRGEIEETITESFGNDHSTLDGYSRRTTLSSKMYHTKGQEGSVCLRSSDCASGLCCARHFWSKICKPVLKEGQVCTKHRRKGSHGLEIFQRCYCGEGLSCRIQKDHHQASNSSRLHTCQRH
Turning to B1, the “TH1 and TH17-associated cytokines (IFN-γ, IL-17A and IL-17F)” value (CD4 T cell activation in vitro) is recorded as “not induced”. The IFN-γ expression result (TH1 polarization conditions, 96 hours) was “suppressed”. Also, the IL-4 expression result (TH2 cell differentiation, dose-dependent) is given as “enhanced”. Besides, the “TGF-β-mediated Foxp3 expression” value (iTreg differentiation with IL-2 and TGF-β, 5 days) was “inhibiting”. Besides, under “in vitro, Dkk-1 30 ng/ml”, the “Gata-3+ and c-Maf+ CD4 T cell population” value was “increased”. Besides, where the note is “naïve CD4 T cells, 96 hours, similar to Wnt3a”, the “amount of Dkk-1 that could induce Gata-3 expression” value is recorded as “up to 30 ng/ml”. Further, under “naïve CD4 T cells, Dkk-1 30 ng/ml, 96 hours, qPCR”, the “TCF-1 or Lef expression” value is “did not induce”. Also, the “levels of Dkk-1 that inhibited Gata-3 expression” value (naïve CD4 T cells, non-physiologic high levels) was over 50 ng/mL. For the setting “splenic CD4+CD25- cells, Dkk-1 25 ng/ml”, the “phosphorylation of S6 kinase or 4E-BP-1” value is given as “not altered”. For the same molecule, the “IL-4, IL-10 and IL-13” value (total CD4 T cell activation in vitro, Dkk-1 30 ng/ml, 4 days) is given as “induced”.
